What was measured:
[1] = target: BG505.T332N.SOSIP.664.113C.429GCG gp140 trimer (HIV-1 BG505); experiment: SPR
[2] = target: BG505.T332N.SOSIP.664.113C.431GCG gp140 trimer (HIV-1 BG505); experiment: SPR

two-domain soluble CD4 (receptor)
reduction in binding affinity against the unmutated trimer [1]: 3 log
reduction in binding affinity against the unmutated trimer [2]: 3 log

Reference: paper PMC6007033
